Experimental data as given in the supplement of paper PMC10567573.

B1: FAM50A (parent)
chain: HIFPASRWEPYDPEKKWDKYTIR

Variants of: B1
Assay: protein stability index of a GFP-peptide fusion (GPS, HEK-293T) (PSI 1-6); higher = more stable
Settings: c terminus: native
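Further: lentivirally expressed fusions sorted by FACS into six bins by GFP to DsRed ratio, PSI derived from sequencing read proportions per bin multiplied by bin number.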

| Variant | protein stability index |
| --- | --- |
| HLFPASRWEPYDPEKKWDKYTIR [I2L] | 3.1 |
| HIFPASRWEPYDPEGKWDKYTIR [K15G] | 2.27 |
| HIFPASRWEPYDPEKKWDKGTIR [Y20G] | 2.16 |
| HIFPAMRWEPYDPEKKWDKYTIR [S6M] | 2.48 |
| HIFPASRWEPYDPEDKWDKYTIR [K15D] | 2.05 |
| HIFPASRWEPRDPEKKWDKYTIR [Y11R] | 4.26 |
| HIFPASRWEPYDPEKKWDKDTIR [Y20D] | 3.29 |
| HIFPASRWEPYDPAKKWDKYTIR [E14A] | 2.66 |
| HIFPASRWEPEDPEKKWDKYTIR [Y11E] | 2.37 |
| HIFPAVRWEPYDPEKKWDKYTIR [S6V] | 1.95 |
| MIFPASRWEPYDPEKKWDKYTIR [H1M] | 1.22 |
| HIFPASRWEPYDPPKKWDKYTIR [E14P] | 2.2 |
| HIFQASRWEPYDPEKKWDKYTIR [P4Q] | 1.77 |
| HHFPASRWEPYDPEKKWDKYTIR [I2H] | 2.41 |
| HIFPASRWEFYDPEKKWDKYTIR [P10F] | 2.04 |
| HIFPASRWHPYDPEKKWDKYTIR [E9H] | 1.88 |
| HIFPASRWELYDPEKKWDKYTIR [P10L] | 1.8 |
| HIFPISRWEPYDPEKKWDKYTIR [A5I] | 2.18 |
| NIFPASRWEPYDPEKKWDKYTIR [H1N] | 2.77 |
| HIFPASRWEPYDPEKKWFKYTIR [D18F] | 1.55 |
| HIFPASRWEPYDPEKKWHKYTIR [D18H] | 2.58 |
| HIFPASIWEPYDPEKKWDKYTIR [R7I] | 1.48 |
| HIFSASRWEPYDPEKKWDKYTIR [P4S] | 1.97 |
| HIFPASRWEPYDPEKKWDKYGIR [T21G] | 2.38 |
| HIFPASRWEPYDPEKKWDKYQIR [T21Q] | 2.18 |

| Variant | protein stability index |
| --- | --- |
| HIFPASRWGPYDPEKKWDKYTIR [E9G] | 1.72 |
| HIFPASRWEPYWPEKKWDKYTIR [D12W] | 1.8 |
| HICPASRWEPYDPEKKWDKYTIR [F3C] | 2.54 |
| HIFPASEWEPYDPEKKWDKYTIR [R7E] | 3.47 |
| HIFPASRWEPYDPSKKWDKYTIR [E14S] | 2.65 |
| HIFPASRWEPDDPEKKWDKYTIR [Y11D] | 2.74 |
| HIFPASRWEPYPPEKKWDKYTIR [D12P] | 1.69 |
| HIFPASRWEPYDPCKKWDKYTIR [E14C] | 2 |
| HIFPASRWEPYDPEKKWDWYTIR [K19W] | 3.02 |
| HIFPASRWEPYDPEKKSDKYTIR [W17S] | 3 |
| HIFPASRWEPYLPEKKWDKYTIR [D12L] | 1.83 |
| KIFPASRWEPYDPEKKWDKYTIR [H1K] | 1.08 |
| HIFPASRWEPYDMEKKWDKYTIR [P13M] | 2.53 |
| HIFPASRWEPYYPEKKWDKYTIR [D12Y] | 1.75 |
| PIFPASRWEPYDPEKKWDKYTIR [H1P] | 2.83 |
| HIFPASCWEPYDPEKKWDKYTIR [R7C] | 1.85 |
| HIFPASRWEPYDPDKKWDKYTIR [E14D] | 2.02 |
| HIFPASRWEPYFPEKKWDKYTIR [D12F] | 2.48 |
| HIFPASRWEPYDPEKKWDPYTIR [K19P] | 2.3 |
| HIFPASRWEPYDLEKKWDKYTIR [P13L] | 1.58 |
| HIFPASRWEPYDPEKKWDKNTIR [Y20N] | 2.73 |
| HIFPASRWEPYDPEKAWDKYTIR [K16A] | 1.76 |
| HIFPASRWEPYDEEKKWDKYTIR [P13E] | 1.86 |
| HIFPASRWEPYDPEKKMDKYTIR [W17M] | 2.61 |
| HIFPCSRWEPYDPEKKWDKYTIR [A5C] | 1.73 |

| Variant | protein stability index |
| --- | --- |
| HGFPASRWEPYDPEKKWDKYTIR [I2G] | 3.14 |
| HIFPASRWEPVDPEKKWDKYTIR [Y11V] | 2.67 |
| HIFPASVWEPYDPEKKWDKYTIR [R7V] | 2.48 |
| HIFPASRWEPPDPEKKWDKYTIR [Y11P] | 2.71 |
| HIFPASRWTPYDPEKKWDKYTIR [E9T] | 1.87 |
| HRFPASRWEPYDPEKKWDKYTIR [I2R] | 3.2 |
| HIFPASRWEPYGPEKKWDKYTIR [D12G] | 2.16 |
| HIFPASRWEPYDPEKKWDKYTII [R23I] | 2.21 |
| HIFPASRWEPYDPEEKWDKYTIR [K15E] | 1.66 |
| HIFPASRGEPYDPEKKWDKYTIR [W8G] | 3.72 |
| HIFPASRWEPYDPEKKWDSYTIR [K19S] | 1.89 |
| HIFPASRWVPYDPEKKWDKYTIR [E9V] | 2.17 |
| HIFNASRWEPYDPEKKWDKYTIR [P4N] | 2.71 |
| HIFPASRWEPYDPEKMWDKYTIR [K16M] | 1.71 |
| HIFPAIRWEPYDPEKKWDKYTIR [S6I] | 2.63 |
| HIFPASRWEAYDPEKKWDKYTIR [P10A] | 1.71 |
| HIFPAWRWEPYDPEKKWDKYTIR [S6W] | 2 |
| HIFPASPWEPYDPEKKWDKYTIR [R7P] | 2.01 |
| HIFPASRWEPYDPELKWDKYTIR [K15L] | 1.57 |
| HIFPASRWEPYSPEKKWDKYTIR [D12S] | 2.49 |
| HIFPASRWEPMDPEKKWDKYTIR [Y11M] | 2.65 |
| HIFPASRWEPYDPEKYWDKYTIR [K16Y] | 1.66 |
| HIFPASRLEPYDPEKKWDKYTIR [W8L] | 3.38 |
| HIFPASRWEPYDPEKKWDKETIR [Y20E] | 2.02 |
| HWFPASRWEPYDPEKKWDKYTIR [I2W] | 2.16 |

| Variant | protein stability index |
| --- | --- |
| HIFPASRWEPYDPEKKWDKRTIR [Y20R] | 2.81 |
| HIFMASRWEPYDPEKKWDKYTIR [P4M] | 1.59 |
| HIFPASRSEPYDPEKKWDKYTIR [W8S] | 3.62 |
| HIFPASRWEPYDDEKKWDKYTIR [P13D] | 1.75 |
| HIFPASRWEPYDIEKKWDKYTIR [P13I] | 3.04 |
| HIFPLSRWEPYDPEKKWDKYTIR [A5L] | 1.58 |
| HIFPASLWEPYDPEKKWDKYTIR [R7L] | 1.21 |
| HIFPASRWEPYDPEKKWLKYTIR [D18L] | 2.08 |
| HIFPASRWEPYDPEKKWDKYTPR [I22P] | 3.88 |
| HIFPASRWEPYDPEKRWDKYTIR [K16R] | 2.59 |
| HFFPASRWEPYDPEKKWDKYTIR [I2F] | 2.33 |
| HCFPASRWEPYDPEKKWDKYTIR [I2C] | 2.74 |
| HIFPASRWEPYDPEKKQDKYTIR [W17Q] | 3.14 |
| HIFPASRWEEYDPEKKWDKYTIR [P10E] | 2.32 |
| HIFPASRWEPYDPEKKWDDYTIR [K19D] | 2.24 |
| HIFPALRWEPYDPEKKWDKYTIR [S6L] | 1.84 |
| EIFPASRWEPYDPEKKWDKYTIR [H1E] | 2.52 |
| HIFHASRWEPYDPEKKWDKYTIR [P4H] | 2.36 |
| HIFPASRWEKYDPEKKWDKYTIR [P10K] | 2.24 |
| HIFPASRWEPYEPEKKWDKYTIR [D12E] | 2.15 |
| HIFPASRWEPYDPEKKWDKYEIR [T21E] | 2.7 |
| HIFPASRWEPYDSEKKWDKYTIR [P13S] | 2.1 |
